Data published in patent US20210155689A1 (SHANGHAI PHARMAEXPLORER, published 2021).
Several values for one entry are separate records, joined by “and”; a condition that tells them apart may be missing. Identical values can stand only once.

Experiments:
[1] = target: human LAG-3 (full length, on the cell surface) (human) (UniProt P18627); assay: cell-based or functional assay
Target sequence in this assay (P18627 23-525 limits assumed): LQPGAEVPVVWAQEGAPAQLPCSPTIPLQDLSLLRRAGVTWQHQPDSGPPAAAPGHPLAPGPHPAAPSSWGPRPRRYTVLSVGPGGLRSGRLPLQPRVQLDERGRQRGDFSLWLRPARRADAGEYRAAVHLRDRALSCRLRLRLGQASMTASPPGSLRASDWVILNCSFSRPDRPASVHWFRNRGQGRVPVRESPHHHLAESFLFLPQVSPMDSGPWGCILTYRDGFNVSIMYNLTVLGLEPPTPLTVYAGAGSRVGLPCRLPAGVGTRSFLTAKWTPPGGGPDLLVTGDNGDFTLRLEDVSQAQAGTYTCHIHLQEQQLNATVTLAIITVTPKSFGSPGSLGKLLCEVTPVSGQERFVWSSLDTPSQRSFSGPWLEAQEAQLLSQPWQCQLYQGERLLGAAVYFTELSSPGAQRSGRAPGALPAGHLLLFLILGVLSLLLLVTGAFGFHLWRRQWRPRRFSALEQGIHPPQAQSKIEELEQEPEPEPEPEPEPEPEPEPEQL

[2] = target: human LAG-3 (full length, on the cell surface) (human) (UniProt P18627); assay: FACS, HEK293-hLAG-3; 0.000 nM
[3] = target: human LAG-3 (full length, on the cell surface) (human) (UniProt P18627); assay: FACS, HEK293-hLAG-3; 0.013 nM
[4] = target: human LAG-3 (full length, on the cell surface) (human) (UniProt P18627); assay: FACS, HEK293-hLAG-3; 0.064 nM
[5] = target: human LAG-3 (full length, on the cell surface) (human) (UniProt P18627); assay: FACS, HEK293-hLAG-3; 0.320 nM
[6] = target: human LAG-3 (full length, on the cell surface) (human) (UniProt P18627); assay: FACS, HEK293-hLAG-3; 1.600 nM
[7] = target: human LAG-3 (full length, on the cell surface) (human) (UniProt P18627); assay: FACS, HEK293-hLAG-3; 8.000 nM
[8] = target: monkey LAG-3 (full length, on the cell surface) (monkey); assay: FACS, HEK293-cLAG-3; 0.000 nM
Chain of monkey LAG-3 (full length, on the cell surface) (monkey) (P18627 other isoform, or with tags, fused parts or gaps limits assumed): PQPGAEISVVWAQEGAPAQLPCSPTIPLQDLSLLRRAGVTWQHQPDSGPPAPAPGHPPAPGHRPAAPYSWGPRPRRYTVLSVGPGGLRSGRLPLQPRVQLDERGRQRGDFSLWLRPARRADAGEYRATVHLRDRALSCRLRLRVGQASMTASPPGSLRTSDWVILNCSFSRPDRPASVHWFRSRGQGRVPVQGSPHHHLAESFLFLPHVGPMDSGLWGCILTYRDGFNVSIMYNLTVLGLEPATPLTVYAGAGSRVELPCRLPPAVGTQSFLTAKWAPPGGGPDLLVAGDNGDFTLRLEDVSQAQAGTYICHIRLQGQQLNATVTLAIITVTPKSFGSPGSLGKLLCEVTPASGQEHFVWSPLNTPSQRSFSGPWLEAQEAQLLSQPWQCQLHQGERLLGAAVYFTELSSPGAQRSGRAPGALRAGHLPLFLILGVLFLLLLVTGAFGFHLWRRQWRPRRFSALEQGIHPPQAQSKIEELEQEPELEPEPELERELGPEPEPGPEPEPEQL

[9] = target: monkey LAG-3 (full length, on the cell surface) (monkey); assay: FACS, HEK293-cLAG-3; 0.013 nM
[10] = target: monkey LAG-3 (full length, on the cell surface) (monkey); assay: FACS, HEK293-cLAG-3; 0.064 nM
[11] = target: monkey LAG-3 (full length, on the cell surface) (monkey); assay: FACS, HEK293-cLAG-3; 0.320 nM
[12] = target: monkey LAG-3 (full length, on the cell surface) (monkey); assay: FACS, HEK293-cLAG-3; 1.600 nM
[13] = target: monkey LAG-3 (full length, on the cell surface) (monkey); assay: FACS, HEK293-cLAG-3; 8.000 nM
[14] = target: human LAG-3 (full length, on the cell surface) (human) (UniProt P18627); assay: FACS, HEK293-hLAG-3; 40.000 nM
[15] = target: monkey LAG-3 (full length, on the cell surface) (monkey); assay: FACS, HEK293-cLAG-3; 40.000 nM
[16] = target: human LAG-3 (full length, on the cell surface) (human) (UniProt P18627); assay: FACS, HEK293-hLAG-3; 200.000 nM
[17] = target: monkey LAG-3 (full length, on the cell surface) (monkey); assay: FACS, HEK293-cLAG-3; 200.000 nM
[18] = target: human LAG-3 protein with hFc tag (hLAG-3-hFc protein) (human) (UniProt P18627); assay: FACS, blocks LAG-3-hFc binding to MHC II on Raji; 0.000 nM
[19] = target: human LAG-3 protein with hFc tag (hLAG-3-hFc protein) (human) (UniProt P18627); assay: FACS, blocks LAG-3-hFc binding to MHC II on Raji; 0.274 nM
[20] = target: human LAG-3 protein with hFc tag (hLAG-3-hFc protein) (human) (UniProt P18627); assay: FACS, blocks LAG-3-hFc binding to MHC II on Raji; 0.823 nM
[21] = target: human LAG-3 protein with hFc tag (hLAG-3-hFc protein) (human) (UniProt P18627); assay: FACS, blocks LAG-3-hFc binding to MHC II on Raji; 2.469 nM
[22] = target: human LAG-3 protein with hFc tag (hLAG-3-hFc protein) (human) (UniProt P18627); assay: FACS, blocks LAG-3-hFc binding to MHC II on Raji; 7.407 nM
[23] = target: human LAG-3 protein with hFc tag (hLAG-3-hFc protein) (human) (UniProt P18627); assay: FACS, blocks LAG-3-hFc binding to MHC II on Raji; 22.222 nM
[24] = target: human LAG-3 protein with hFc tag (hLAG-3-hFc protein) (human) (UniProt P18627); assay: FACS, blocks LAG-3-hFc binding to MHC II on Raji; 66.667 nM
[25] = target: human LAG-3 protein with hFc tag (hLAG-3-hFc protein) (human) (UniProt P18627); assay: FACS, blocks LAG-3-hFc binding to MHC II on Raji; 200.000 nM
[26] = target: T1, human LAG-3 ECD (antigen protein of the affinity test) (human, UniProt P18627 23-450); assay: SPR (CM5 chip), antibody captured by anti-human Fc IgG, antigen protein in flow, 1:1 model
T1 sequence: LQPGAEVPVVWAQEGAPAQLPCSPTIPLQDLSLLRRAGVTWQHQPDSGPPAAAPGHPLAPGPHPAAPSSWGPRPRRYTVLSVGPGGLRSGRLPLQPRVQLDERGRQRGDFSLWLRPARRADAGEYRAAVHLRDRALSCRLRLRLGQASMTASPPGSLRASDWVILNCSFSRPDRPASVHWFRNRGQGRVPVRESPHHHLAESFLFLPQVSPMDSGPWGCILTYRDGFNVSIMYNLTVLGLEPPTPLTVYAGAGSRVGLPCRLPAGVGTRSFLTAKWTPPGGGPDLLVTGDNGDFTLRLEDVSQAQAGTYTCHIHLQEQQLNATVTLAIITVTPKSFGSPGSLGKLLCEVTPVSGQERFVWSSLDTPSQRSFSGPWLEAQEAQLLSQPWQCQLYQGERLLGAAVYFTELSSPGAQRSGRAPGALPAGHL
Protocol: (§1) First, anti-human Fc IgG was immobilized on the surface of the CM5 chip to 6000-10000 RU by amino coupling method, with FC1 as the reference channel. The coupling process was as follows: a freshly prepared 1:1 mixture of 50 mM NHS and 200 mM EDC was activated for 7 minutes, then injected with 10-50 ug/ml anti-human Fc IgG diluted in 10 mM sodium acetate ph5.0 buffer. The remaining activated sites were blocked with 1M ethanolamine. Then, HBS-EP+ buffer was used to dilute the antibody to be tested to 5 ug/ml (adjustable according to the capture level) and the antibodies were captured on the chip at a flow rate of 10 ul/min to obtain a response value of about 100˜300 RU. Then the antigen protein was diluted to 100 nM (the highest concentration was tentatively 100 nM), and flew through the chip surface at a flow rate of 30 ul/min. If enough signal value was obtained, the antigen-protein was diluted by several concentration gradients, and flew through the chip surface respectively. At the end of each cycle, the chip surface was regenerated with 10 mM Glycine at pH 1.5. The kinetic rate constant needed to be subtracted from the blank control, and the data was fitted with the global fit analysis method 1:1 combination model. The dissociation equilibrium rate constant (KD) was calculated according to the following formula: KD=kd/ka.
(§2) The method was the same as that in Example 5.

[27] = target: T2, human LAG-3 ECD (antigen protein of the affinity test) (human, UniProt P18627 23-450); assay: SPR, antibody captured by anti-human Fc IgG on CM5; ratio of KD values
T2 sequence: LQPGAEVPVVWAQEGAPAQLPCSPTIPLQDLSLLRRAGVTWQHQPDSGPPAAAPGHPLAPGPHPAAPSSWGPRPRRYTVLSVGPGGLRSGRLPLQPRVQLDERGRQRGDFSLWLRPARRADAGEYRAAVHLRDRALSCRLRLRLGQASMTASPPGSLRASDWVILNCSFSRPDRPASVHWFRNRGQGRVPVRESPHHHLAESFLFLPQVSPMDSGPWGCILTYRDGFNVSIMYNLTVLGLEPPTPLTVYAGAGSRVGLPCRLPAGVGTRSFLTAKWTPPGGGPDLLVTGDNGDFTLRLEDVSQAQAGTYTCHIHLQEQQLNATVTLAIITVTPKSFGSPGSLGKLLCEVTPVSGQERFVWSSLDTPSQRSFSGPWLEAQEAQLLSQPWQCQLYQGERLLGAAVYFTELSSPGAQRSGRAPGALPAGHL
Protocol: as §1, §2

[28] = target: human LAG-3 (full length, on the cell surface) (human) (UniProt P18627); assay: cell-based or functional assay; remark: listed apart in the source

mIgG1 (murine IgG control) (antibody)
mIL-2 (pg/mL), antigen-specific T lymphocyte stimulation test; control IgG 0.016 ug/mL [1]: 177 pg/mL and 104 pg/mL
mIL-2 (pg/mL), antigen-specific T lymphocyte stimulation test; control IgG 0.08 ug/mL [1]: 175 pg/mL and 89.2 pg/mL
mIL-2 (pg/mL), antigen-specific T lymphocyte stimulation test; control IgG 2 ug/mL [1]: 174 pg/mL and 84.1 pg/mL
mIL-2 (pg/mL), antigen-specific T lymphocyte stimulation test; control IgG 4 ug/mL (so in the source) [1]: 145 pg/mL and 84.2 pg/mL
mIL-2 (pg/mL), antigen-specific T lymphocyte stimulation test; control IgG 10 ug/mL [1]: 169 pg/mL and 108 pg/mL
Mean fluorescence intensity [2]: 3 MFI and 3.8 MFI
Mean fluorescence intensity [3]: 2.9 MFI and 3.8 MFI
Mean fluorescence intensity [4]: 2.9 MFI and 3.8 MFI
Mean fluorescence intensity [5]: 2.7 MFI and 3.8 MFI
Mean fluorescence intensity [6]: 2.7 MFI and 3.9 MFI
Mean fluorescence intensity [7]: 2.9 MFI and 3.9 MFI
Mean fluorescence intensity [8]: 3.4 MFI and 4 MFI
Mean fluorescence intensity [9]: 3.5 MFI and 4 MFI
Mean fluorescence intensity [10]: 3.2 MFI and 4 MFI
Mean fluorescence intensity [11]: 3.3 MFI and 4 MFI
Mean fluorescence intensity [12]: 3.2 MFI and 4 MFI
Mean fluorescence intensity [13]: 3.3 MFI and 4.1 MFI
Mean fluorescence intensity [14]: 2.8 MFI and 4 MFI
Mean fluorescence intensity [15]: 3.3 MFI and 4.1 MFI
Mean fluorescence intensity [16]: 2.8 MFI and 4.2 MFI
Mean fluorescence intensity [17]: 3.6 MFI and 4.2 MFI
Inhibition rate (%) [18]: 8.2% and -11.5%
Inhibition rate (%) [19]: 5.3% and -3.9%
Inhibition rate (%) [20]: 13.8% and 4%
Inhibition rate (%) [21]: 13.7% and 1.8%
Inhibition rate (%) [22]: 3.4% and 2.8%
Inhibition rate (%) [23]: 2.8% and 4.2%
Inhibition rate (%) [24]: 6.7% and 7.4%
Inhibition rate (%) [25]: 12.8% and -0.9%

B1: 556F6B8-3 (D→E) hot-spot mutated humanized antibody (antibody, V domains shown)
VH: QVQLQESGPGLVKPSETLSLTCTVSGFSLIKYGVHWIRQPPGKGLEWIGVIWRGGITDYNAAFMSRVTISKDTSKSQVSLKLSSVTAADTAVYYCARWEGPLAMDYWGQGTTVTVSS
VL: DIQLTQSPSFLSASVGDRVTITCKASQDVGTTVAWYQQKPGKAPKLLIYWASTRHTGVPSRFSGSGSGTEFTLTISSLQPEDFATYYCQQYSSYPYTFGQGTKLEIK
Kd [26]: 33.5 nM
koff [26]: 0.00384 s⁻¹
kon [26]: 115000 M⁻¹ s⁻¹

B2: 556F6B8-3 (D→E) (humanized antibody with hot spot mutation) (antibody, human IgG4, V domains shown)
VH: QVQLQESGPGLVKPSETLSLTCTVSGFSLIKYGVHWIRQPPGKGLEWIGVIWRGGITDYNAAFMSRVTISKDTSKSQVSLKLSSVTAADTAVYYCARWEGPLAMDYWGQGTTVTVSS
VL: DIQLTQSPSFLSASVGDRVTITCKASQDVGTTVAWYQQKPGKAPKLLIYWASTRHTGVPSRFSGSGSGTEFTLTISSLQPEDFATYYCQQYSSYPYTFGQGTKLEIK
notes: made as the humanized antibodies (human IgG4 constant region); also called humanized antibody 556F6B8-3 with hot spot mutation
fold reduction of affinity against the corresponding chimeric antibody [27]: 12.5 fold

B3: 405B8H3-1 (D→E) (humanized antibody with hot spot mutation) (antibody, human IgG4, V domains shown)
VH: QVQLVQSGAEVKKPGASVKVSCKASGYTFTDYEMHWVRQAPGQGLEWMGATDPETGNSAYNQKFKGRVTMTRDTSTSTVYMELSSLRSEDTAVYYCISTGWNDWGQGTTVTVSS
VL: DIQMTQSPSSLSASVGDRVTITCKASQDINSYLSWFQQKPGKAPKSLIYRADRLLEGVPSRFSGSGSGTDFTLTISSLQPEDFATYYCLQYDEFPYTFGQGTKLEIK
notes: made as the humanized antibodies (human IgG4 constant region); also called 405B81-13-1 (D→E); hot-spot mutated antibody
fold increase of affinity against the chimeric antibody 405B8H3 [27]: 1.5 times

B4: 553G8G8 (mouse antibody purified from hybridoma) (antibody, V domains shown)
VH: RVQLKQSGPGLVQPSQSLSITCTVSGFSLIKYGVHWVRQSPGEGLEWLGVIWRGGITDYNAAFMSRLSITKDNSKSQVFFKMNSLQADDTAIYYCAKWDGPLAMDYWGQGTSVTVSS
VL: DVQMIQSPSSLSASLGDMVTMTCQASQGTNINLNWFQQKPGKAPKLLIYGASNLEDGVPSRFSGSRYGTDFTLTISSLEDEDMATYFGLQHSYLPLTFGAGTKLELK
mIL-2 (pg/mL), antigen-specific T lymphocyte stimulation test; antibody 0.016 ug/mL [28]: 98.2 pg/mL
mIL-2 (pg/mL), antigen-specific T lymphocyte stimulation test; antibody 0.08 ug/mL [28]: 134 pg/mL
mIL-2 (pg/mL), antigen-specific T lymphocyte stimulation test; antibody 2 ug/mL [28]: 251 pg/mL
mIL-2 (pg/mL), antigen-specific T lymphocyte stimulation test; antibody 10 ug/mL [28]: 352 pg/mL
Mean fluorescence intensity [2]: 2.7 MFI
Mean fluorescence intensity [3]: 3.9 MFI
Mean fluorescence intensity [4]: 7 MFI
Mean fluorescence intensity [5]: 17.1 MFI
Mean fluorescence intensity [6]: 44.4 MFI
Mean fluorescence intensity [7]: 68.4 MFI
Mean fluorescence intensity [8]: 3.2 MFI
Mean fluorescence intensity [9]: 3.5 MFI
Mean fluorescence intensity [10]: 4.2 MFI
Mean fluorescence intensity [11]: 8.8 MFI
Mean fluorescence intensity [12]: 28.1 MFI
Mean fluorescence intensity [13]: 77.7 MFI
Mean fluorescence intensity [14]: 79.4 MFI
Mean fluorescence intensity [15]: 112 MFI
Mean fluorescence intensity [16]: 81 MFI
Mean fluorescence intensity [17]: 128 MFI
Inhibition rate (%) [18]: -12.4%
Inhibition rate (%) [19]: 8.1%
Inhibition rate (%) [20]: 15.2%
Inhibition rate (%) [21]: 45%
Inhibition rate (%) [22]: 93.8%
Inhibition rate (%) [23]: 95.8%
Inhibition rate (%) [24]: 96%
Inhibition rate (%) [25]: 95.9%
